# Results published in publication PMC6940790.
# Residue numbers refer to the chain shown, from its start. Names and notes keep the numbering of the source.
# B1: Bgl1D (uncultured microorganism; L115N/S28T) (protein)
# chain: MSLFFTFNPLEIVPTRVIGVPNHYQNYTWCNFQNGDYPFIDGIDINLIYQVKVGIPIVVRLETVATIFNILIPHLSESERDYIKRVYDYLRLDGRTSQSSYFFGPVDSQKIGLINRKYFFEWSSQMTYECLSGKVRGIAAPDKLVSEMNEIYNELMKVFNGDVSNIVNIGVN
# B2: Bgl1D (uncultured microorganism) (protein)
# chain: B1 chain with T28S, N115L
# B3: Bgl1D (uncultured microorganism; F68L/I70M) (protein)
# chain: B1 chain with T28S, F68L, I70M, N115L
# B4: Bgl1D (uncultured microorganism; D44E/F68L/I70M/R91G/Y37H) (protein)
# chain: B1 chain with T28S, Y37H, D44E, F68L, I70M, R91G, N115L
# B5: Bgl1D (uncultured microorganism; E154G/I57K/S28P) (protein)
# chain: B1 chain with T28P, I57K, N115L, E154G
# Test system: O=[N+]([O-])c1ccc(O[C@@H]2O[C@H](CO)[C@@H](O)[C@H](O)[C@H]2O)cc1
# Assay: purified protein
# Details: pH 10.0, glycine-NaOH, 30 °C
Molecule,Km,Vmax,kcat,kcat/Km
Bgl1D (uncultured microorganism; K117N/M148K/Q25L),1250 ± 120 µM,21.7 µmol/min/mg,23.8 s⁻¹,14400 M⁻¹ s⁻¹
Bgl1D (uncultured microorganism; K117N/L115Q/M148K/Q25L/S28T),1740 ± 140 µM,37.5 µmol/min/mg,31.2 s⁻¹,17900 M⁻¹ s⁻¹
Bgl1D (uncultured microorganism; E154G/I57K/S28P/W122G/Y82S),1670 ± 120 µM,42.5 µmol/min/mg,55.8 s⁻¹,33400 M⁻¹ s⁻¹

# Same assay, conditions: pH 10.0, glycine-NaOH, results text says 30 °C, methods say optimal temperatures of 30 and 50 °C
Molecule,Km,Vmax,kcat,kcat/Km
Bgl1D (uncultured microorganism; D44E/L115N/R91G/S28T/Y37H),430 ± 40 µM,314 µmol/min/mg,242 s⁻¹,562000 M⁻¹ s⁻¹

# Substrate: O=[N+]([O-])c1ccc(O[C@@H]2O[C@H](CO)[C@@H](O)[C@H](O)[C@H]2O)cc1
# Assay: purified protein
# Details: pH 10.0, glycine-NaOH, 30 °C
# Remark: another data set of the same source
Molecule,Km,Vmax,kcat,kcat/Km
B1,1010 ± 450 µM,26.3 µmol/min/mg,16.5 s⁻¹,16400 M⁻¹ s⁻¹
B2,540 ± 30 µM,20.1 µmol/min/mg,13.4 s⁻¹,24800 M⁻¹ s⁻¹
B3,530 ± 80 µM,25.8 µmol/min/mg,29.4 s⁻¹,55400 M⁻¹ s⁻¹
B4,470 ± 20 µM,154 µmol/min/mg,139 s⁻¹,296000 M⁻¹ s⁻¹
B5,1170 ± 50 µM,52.9 µmol/min/mg,48.1 s⁻¹,41100 M⁻¹ s⁻¹
